Data taken from patent publication US20210070833A1 (GI INNOVATION, published 2021).

B1: FcεRIαECD-Fc2 (Fc fusion)
chain: VPQKPKVSLNPPWNRIFKGENVTLTCNGNNFFEVSSTKWFHNGSLSEETNSSLNIVNAKFEDSGEYKCQHQQVNESEPVYLEVFSDWLLLQASAEVVMEGQPLFLRCHGWRNWDVYKVIYYKDGEALKYWYENHNISITNATVEDSGTYYCTGKVWQLDYESEPLNITVIKAPREKYWLQRNTGRGGEEKKGSKEKEEQEERETKTPECPSHTQPLGVFLFPPKPKDTLMISRTPEVTCVVVDVSQEDPEVQFNWYVDGVEVHNAKTKPREEQFNSTYRVVSVLTVLHQDWLNGKEYKCKVSNKGLPSSIEKTISKAKGQPREPQVYTLPPSQEEMTKNQVSLTCLVKGFYPSDIAVEWESNGQPENNYKTTPPVLDSDGSFFLYSRLTVDKSRWQEGNVFSCSVMHEALHNHYTQKSLSLSLGK
B2: FcεRIαECD-Fc2ST (Fc fusion)
chain: B1 chain
modifications: sialic acid added (co-expressed with α-2,6-sialic acid transferase)
notes: also called IgETRAP; FcεRIαECD-Fc2 + a2,6-ST

Key:
mouse IgE = target: T1, mouse IgE (mouse, UniProt P06336 1-421); experiment: cell-based or functional assay
T1 heavy (looked up): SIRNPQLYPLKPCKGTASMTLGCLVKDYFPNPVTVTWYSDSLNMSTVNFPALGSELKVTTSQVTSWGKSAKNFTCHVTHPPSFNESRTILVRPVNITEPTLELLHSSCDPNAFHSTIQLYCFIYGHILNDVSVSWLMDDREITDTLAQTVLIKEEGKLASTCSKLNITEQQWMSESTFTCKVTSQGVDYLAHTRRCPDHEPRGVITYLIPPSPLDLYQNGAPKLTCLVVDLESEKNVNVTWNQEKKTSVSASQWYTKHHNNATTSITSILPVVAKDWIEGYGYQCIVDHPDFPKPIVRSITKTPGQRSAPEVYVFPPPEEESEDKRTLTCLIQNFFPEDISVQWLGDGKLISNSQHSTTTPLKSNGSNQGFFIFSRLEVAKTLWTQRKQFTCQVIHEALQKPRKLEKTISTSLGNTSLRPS

FcγRI = target: T2, FcγRI; experiment: BLI (Octet RED384), FcγRI immobilised on AR2G biosensor, IgETRAP 0.25-4 µM in solution
T2 construct: not in the MOLECULES list; also called IgG receptor FcγRI; Fc gamma receptor I
T2 chain: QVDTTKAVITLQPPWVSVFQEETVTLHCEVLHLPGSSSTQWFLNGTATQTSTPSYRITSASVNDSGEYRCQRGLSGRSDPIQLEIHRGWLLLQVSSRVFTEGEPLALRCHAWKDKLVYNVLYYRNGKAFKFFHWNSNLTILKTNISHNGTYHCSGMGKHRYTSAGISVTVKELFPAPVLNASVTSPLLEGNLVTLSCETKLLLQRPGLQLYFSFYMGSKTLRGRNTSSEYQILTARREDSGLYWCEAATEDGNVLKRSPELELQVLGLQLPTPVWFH
Method: FcγRI, FcγRIIA, FcγRIIB, FcγRIIIA, and FcγRIIIB recombinant proteins (R & D Systems Inc., 5 μg/ml) were immobilized in 300 mM acetate buffer (pH 5) on the activated AR2G biosensor. As a running buffer, PBS containing 0.1% Tween-20 and 1% bovine serum was used. All experiments were carried out at 30° C. with a sample plate shaker at a rate of 1,000 rpm.

IgE = target: T3, IgE; experiment: SPR (ProteOn XPR36), KD against omalizumab as reference; the same paragraph ties 69-fold to FcεRIαECD-Fc2ST
T3 construct: also called immunoglobulin E
Method: The experiments were conducted by identifying zero base using 25 mM NaOH as a regeneration buffer, and then repeating the above steps. Thereafter, a binding curve was identified using a protein binding analyzer (ProteOn XPR36, Bio-Rad Laboratories, Inc., USA).

human IgE = target: T4, human IgE (human, UniProt P01854-1 1-428); experiment: cell-based or functional assay
T4 heavy (looked up): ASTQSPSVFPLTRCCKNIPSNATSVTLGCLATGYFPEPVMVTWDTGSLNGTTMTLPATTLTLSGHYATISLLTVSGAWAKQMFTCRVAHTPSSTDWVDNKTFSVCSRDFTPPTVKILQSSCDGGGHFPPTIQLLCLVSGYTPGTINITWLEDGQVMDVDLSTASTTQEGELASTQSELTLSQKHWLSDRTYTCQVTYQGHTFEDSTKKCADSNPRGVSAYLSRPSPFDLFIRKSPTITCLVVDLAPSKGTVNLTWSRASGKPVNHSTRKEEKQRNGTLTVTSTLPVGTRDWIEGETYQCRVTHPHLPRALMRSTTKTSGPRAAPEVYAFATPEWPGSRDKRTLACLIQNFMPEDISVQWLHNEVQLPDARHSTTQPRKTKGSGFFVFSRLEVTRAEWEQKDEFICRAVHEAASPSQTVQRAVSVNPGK

| Binder | mast cell inhibition ratio (β-hexosaminidase release, mouse bone marrow-derived mast cells) at 0.5 ug/mL (mouse IgE) [%] | mast cell inhibition ratio (β-hexosaminidase release, mouse bone marrow-derived mast cells) at 1 ug/mL (mouse IgE) [%] | binding result (FcγRI) | fold difference of KD against omalizumab (printed as 'higher') (IgE) [fold] | IC50 of mast cell inhibition (β-hexosaminidase release, human FcεRI-expressing mouse bone marrow-derived mast cells) (human IgE) [µg/mL] | inhibitory ability on mast cell activity, fold against Xolair (human IgE) [fold] |
| --- | --- | --- | --- | --- | --- | --- |
| B1 | ~49.4 | ~99.4 |  |  |  |  |
| B2 |  |  | no binding (tested: 4 µM) | 22 to 69 | ~0.0112 | 58 |
